Source: FireProtDB (doi:10.1021/ja046667t)
“And” between values parts separate entries of the source, which are not always exact repeats. Equal entries are not always repeated.

Settings: pH 7, Thermal, CD, Phosphate 50 mM, whole UniProt chain shown

B1: Cytochrome c-552 wild type, P15452 (protein)
chain: MKKFLLVAVVGLAGITFANEQLAKQKGCMACHDLKAKKVGPAYADVAKKYAGRKDAVDYLAGKIKKGGSGVWGSVPMPPQNVTDAEAKQLAQWILSIK
Hydrogenobacter thermophilus (strain DSM 6534 / IAM 12695 / TK-6), 25 °C
  unfolding enthalpy (van 't Hoff): 56.3 kcal/mol and 64.2 kcal/mol
Hydrogenobacter thermophilus (strain DSM 6534 / IAM 12695 / TK-6)
  unfolding enthalpy (van 't Hoff): 109 kcal/mol and 140 kcal/mol

B2: Cytochrome c-551 wild type, P00099 (protein)
chain: MKPYALLSLLATGTLLAQGAWAEDPEVLFKNKGCVACHAIDTKMVGPAYKDVAAKFAGQAGAEAELAQRIKNGSQGVWGPIPMPPNAVSDDEAQTLAKWVLSQK
Pseudomonas aeruginosa (strain ATCC 15692 / DSM 22644 / CIP 104116 / JCM 14847 / LMG 12228 / 1C / PRS 101 / PAO1), 25 °C
  unfolding free energy: 7.7 kcal/mol and 19.5 kcal/mol
Pseudomonas aeruginosa (strain ATCC 15692 / DSM 22644 / CIP 104116 / JCM 14847 / LMG 12228 / 1C / PRS 101 / PAO1)
  unfolding enthalpy (van 't Hoff): 70.5 kcal/mol and 159 kcal/mol
